# Laboratory results from publication doi:10.1101/2022.03.10.483824.
# Biological target: Full length native cardiac myosin II from rabbit heart ventricle (rabbit) (UniProt P04461)
# Test: optical trapping
substance,measurement,value
Biotinylated actin filament (chicken G actin polymerised with biotinylated G actin) (from UniProt P68139 1-377) (natural protein),"maximum AM detachment rate (kcat, at saturating ATP)",88.2 s⁻¹
